Measurements published in US20190389941A1 (GLIKNIK, published 2019).

B1: FcγRIIa (receptor, UniProt P12318 34-217, looked up)
chain: QAAAPPKAVLKLEPPWINVLQEDSVTLTCQGARSPESDSIQWFHNGNLIPTHTQPSYRFKANNNDSGEYTCQTGQTSLSDPVHLTVLSEWLVLQTPHLEFQEGETIMLRCHSWKDKPLVKVTFFQNGKSQKFSHLDPTFSIPQANHSHSGDYHCTGNIGYTLFSSKPVTITVQVPSMGSSSPMG
notes: also called His-tagged receptor protein; CD32; not shown: His tag
B2: FcγRIIb (receptor, UniProt P31994 43-217, looked up)
chain: TPAAPPKAVLKLEPQWINVLQEDSVTLTCRGTHSPESDSIQWFHNGNLIPTHTQPSYRFKANNNDSGEYTCQTGQTSLSDPVHLTVLSEWLVLQTPHLEFQEGETIVLRCHSWKDKPLVKVTFFQNGKSKKFSRSDPNFSIPQANHSHSGDYHCTGNIGYTLYSSKPVTITVQAP
notes: as for B1

Biological target: T1, G990 (Homo sapiens (Human), UniProt P0DOX5 218-449 = IgG part)
T1 construct: GL-2045 background (IgG1 hinge-CH2-CH3-IgG2 hinge) with G236R; homodimeric unit that multimerizes; also called stradomer G990
Assay: BLI (ForteBio Octet), His-tagged receptor on sensor tip; summary grade
Description: Binding of general stradomers or parent stradomer GL-2045 to FcγRI, FcγRIIb, FcγRIIIa, FcγRIIa, was assessed. RU values of dissociation were measured by biolayer interferometry using a ForteBio Octet instrument. His-tagged receptor proteins were bound to the sensor tip in 1X kinetic analysis buffer from ForteBio after which the on rate of the receptor/protein was measured by transferring the sensor tip to a 1x kinetics buffer containing the purified stradomer of choice. Off rate was measured by transferring the sensor tip to a 1X kinetics buffer, and RU value was calculated from the measured maximum binding using the ForteBio software. Biolayer interferometry detects the binding between a ligand immobilized on the biosensor tip surface and an analyte in solution. When binding occurs it produces an increase in optical thickness at the biosensor tip, which results in a wavelength shift (detected as a response unit of “RU”). The maximum binding level (RU max) is the maximum possible amount of sample binding at equilibrium that saturates the amount of ligand on the sensor surface. The RU 300 is the residual sample binding after 300 seconds of dissociation and is useful to characterize the rate of dissociation of the test article from the test ligand.

| binding result | Binder |
| --- | --- |
| no binding | B1 |
| no binding | B2 |
